US20020123056

Tests used:
[1] = target: T1, PKB-sub peptide (GSK3 consensus peptide) CKRPRAASFAE
T1 chain: CKRPRAASFAE

[2] = target: PDK1 peptide (PDKtide) …

B1: GST-SGK2 fusion protein (human SGK2 with N-terminal Glutathione S-transferase tag, expressed in Hi5 insect cells) (protein)
chain: MNSSPAGTPSPQPSRANGNINLGPSANPNAQPTDFDFLKVIGKGNYGKVLLAKRKSDGAFYAVKVLQKKSILKKKEQSHIMAERSVLLKNVRHPFLVGLRYSFQTPEKLYFVLDYVNGGELFFHLQRERRFLEPRARFYAAEVASAIGYLHSLNIIYRDLKPENILLDCQGHVVLTDFGLCKEGVEPEDTTSTFCGTPEYLAPEVLRKEPYDRAVDWWCLGAVLYEMLHGLPPFYSQDVSQMYENILHQPLQIPGGRTVAACDLLQSLLHKDQRQRLGSKADFLEIKNHVFFSPINWDDLYHKRLTPPFNPNVTGPADLKHFDPEFTQEAVSKSIGCTPDTVASSSGASSAFLGFSYAPEDDDILDC
in vitro kinase assay, 32P incorporation into peptide (purified SGK2) [1]: PKB-sub had significant incorporation of ^32P
in vitro kinase assay, PDK1-activated versus non-activated SGK2 [1]: the PDK1 activated SGK2 had significantly higher kinase activity compared to non-activated SGK2
in vitro kinase assay, 32P incorporation into peptide (purified SGK2) [2]: addition of same amount of control peptide (PDK1 peptide) had no significant incorporation
